Assay results from US20240115706A1 (LG CHEM, published 2024).

What was measured:
[1] = molecular target: T1, human GUCY2C-rCD4 fusion protein (Homo sapiens (human); Rattus norvegicus, biotinylated (site not given)); assay: SPR (Sierra SPR-32), scFv on protein G, antigen 800-12.5 nM, 25 C
T1 construct: GUCY2C conjugated/fused with CD4; also called Hu-GUCY2C-rCD4; human GUCY2C recombinant antigen
Method: Furthermore, the affinity to the GUCY2C antigen of the 18 kinds of scFvs produced in Example 1 was measured by SPR (Surface plasmon resonance) analysis.
SPR assay was performed with association time 2 min and dissociation time 10 min under the condition of 25 degrees of Celsius using MASS2 (Sierra SPR-32; Bruker). The data were analyzed with Software R3.

[2] = molecular target: T1, human GUCY2C-rCD4 fusion protein; assay: ELISA (DELFIA), antigen on streptavidin plate, scFv culture solution, Eu-anti-tag Ab
Method: (§1) More specifically, GUCY2C-rCD4 fusion protein, in which the prepared human GUCY2C (SEQ ID NO: 112), monkey GUCY2C (SEQ ID NO: 114), and mouse GUCY2C (SEQ ID NO: 113) were fused, respectively, was bound to a place coated with streptavidin in a Nunc Maxisorp™96 well plate. After removing all the synthetic proteins not combined with washing buffer, the anti-GUCY2C scFV obtained in the culture solution was incubated in each well. After that, the affinity was measured by reading signals DELFIA enhanced using Eu-anti-tag Ab.

[3] = molecular target: T2, monkey GUCY2C-rCD4 fusion protein (Macaca fascicularis (crab-eating …, limits assumed)); assay: as above
T2 construct: Prepared by the same method as the human antigen; also called Cy-GUCY2C-rCD4; monkey GUCY2C recombinant antigen
T2 chain: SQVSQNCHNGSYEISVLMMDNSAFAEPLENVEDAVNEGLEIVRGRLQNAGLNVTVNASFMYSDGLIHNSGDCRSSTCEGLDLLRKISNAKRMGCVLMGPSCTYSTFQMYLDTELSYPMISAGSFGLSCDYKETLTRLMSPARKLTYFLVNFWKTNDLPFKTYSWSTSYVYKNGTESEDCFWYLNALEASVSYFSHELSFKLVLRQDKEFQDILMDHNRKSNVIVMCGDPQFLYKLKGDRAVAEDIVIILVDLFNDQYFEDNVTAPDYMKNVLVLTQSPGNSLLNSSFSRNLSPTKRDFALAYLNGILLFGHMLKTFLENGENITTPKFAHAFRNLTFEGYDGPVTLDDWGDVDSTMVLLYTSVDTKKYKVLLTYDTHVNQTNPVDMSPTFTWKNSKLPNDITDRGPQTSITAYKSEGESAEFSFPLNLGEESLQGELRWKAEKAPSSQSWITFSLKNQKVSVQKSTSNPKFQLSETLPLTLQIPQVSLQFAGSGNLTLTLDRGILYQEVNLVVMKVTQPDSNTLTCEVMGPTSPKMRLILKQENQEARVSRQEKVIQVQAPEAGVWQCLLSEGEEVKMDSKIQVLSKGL
Method: as §1

[4] = molecular target: T3, mouse GUCY2C-rCD4 fusion protein (Mus musculus (house mouse); Rattus …, limits assumed); assay: as above
T3 construct: Prepared by the same method as the human antigen; also called Mu-GUCY2C-rCD4; murine GUCY2C recombinant antigen
T3 chain: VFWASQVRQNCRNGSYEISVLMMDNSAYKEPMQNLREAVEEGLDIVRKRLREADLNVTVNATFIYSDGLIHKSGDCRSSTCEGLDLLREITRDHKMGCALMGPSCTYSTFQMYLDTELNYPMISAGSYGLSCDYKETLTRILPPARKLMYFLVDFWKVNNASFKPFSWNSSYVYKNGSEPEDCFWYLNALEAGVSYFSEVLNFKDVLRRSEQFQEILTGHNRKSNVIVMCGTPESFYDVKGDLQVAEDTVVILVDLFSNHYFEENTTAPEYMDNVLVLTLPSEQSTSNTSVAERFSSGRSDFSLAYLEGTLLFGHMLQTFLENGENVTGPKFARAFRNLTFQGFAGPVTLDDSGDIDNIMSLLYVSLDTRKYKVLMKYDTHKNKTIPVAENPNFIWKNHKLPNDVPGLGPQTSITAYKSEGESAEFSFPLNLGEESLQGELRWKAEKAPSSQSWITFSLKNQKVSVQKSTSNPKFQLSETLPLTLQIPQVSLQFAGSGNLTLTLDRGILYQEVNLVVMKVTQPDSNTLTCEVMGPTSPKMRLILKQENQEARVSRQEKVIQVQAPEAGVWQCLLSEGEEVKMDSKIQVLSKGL
Method: as §1

[5] = molecular target: T1, human GUCY2C-rCD4 fusion protein; assay: ranking ELISA (DELFIA), 5 nM scFv on anti-FLAG, biotinylated antigen, streptavidin-Eu
Method: (§2) More specifically, after coating an anti-FLAG antibody in a MaxiSorb plate and binding by adding scFvs obtained previously, the remaining scFvs were removed by a washing process. Here, a biotinylated human-GUCY2C-rCD4 protein was incubated and combined, and then the affinity to the antigen was measured by reading signals by DELFIA enhancement with color development through streptavidin-Europlum.

[6] = molecular target: T1, human GUCY2C-rCD4 fusion protein; assay: ranking ELISA (DELFIA), 50 nM scFv on anti-FLAG, biotinylated antigen, streptavidin-Eu
Method: as §2

- Kd [1]: 3.73 µM
- Binding ELISA signal [2]: 79000
- Binding ELISA signal [3]: 51100
- Binding ELISA signal [4]: 17100
- Affinity Ranking ELISA (5 nM) signal [5]: 4740
- Affinity Ranking ELISA (50 nM) signal [6]: 27700
B1: scFv A07 (scFv)
scFv: QVQLQESGPGLVKPSETLSLTCTVSGGSISSYYWSWIRQPPGKGLEWIGSIYYSGSTNYNPSLKSRVTISRDKSKNQLFLKLNSMTAADTAVYYCARDVWGSGQSFDSWGQGTLVTVSSGGGGSGGGGSGGGASNFMLTQPHSVSESPGKTVTISCTRSSGSIASNYVQWYQQRLGSSPTTVIYEHSRRPSGVPDRFSASIDSSSNSASLTISGLKTEDEADYYCQSYDVSNRVFGGGTKLTVL
notes: also called 2427_01_C02
